Here are results for one substance from doi:10.1101/2020.12.03.409334.

The target of this assay is 4R1N tau::mCherry::Cry2Olig chimera (UniProt P10636). Nature of the assay: native gel or EMSA.

What is called stoichiometry N is the number of molecules, sites or subunits per partner or assembly. Take “4R1N tau::mCherry::Cry2Olig chimera (from UniProt P10636-7 1-412)”: the stoichiometry N was 2.
